# Source: paper PMC6884138 (ACS synthetic biology, 2019)
# B1: BMC-H^2 (synthetic tandem-domain BMC shell protein), released from 6xHis-SUMO-BMC-H^2 by ULP protease (other, Haliangium ochraceum)
# chain: MADALGMIEVRGFVGMVEAADAMVKAAKVELIGYEKTGGGYVTAVVRGDVAAVKAATEAGQRAAERVGEVVAVHVIPRPHVNVDAALPLGRTPGMDKSALDAPVVADAWEEDTESADALGMIEVRGFVGMVEAADAMVKAAKVELIGYEKTGGGYVTAVVRGDVAAVKAATEAGQRAAERVGEVVAVHVIPRPHVNVDAALPLGRTPGMDKSA
# How the values were obtained:
# SEC = target: the molecule itself; experiment: SEC
# crystal structure = target: the molecule itself; experiment: crystal structure
protein,measurement,setting,value
B1,stoichiometry N,SEC,3
same,stoichiometry N,crystal structure,90
